The results in this text go back to US20260176314.

Data set [1] addresses T1, bovine β casein (variant A2) (no signal peptide).
T1 chain: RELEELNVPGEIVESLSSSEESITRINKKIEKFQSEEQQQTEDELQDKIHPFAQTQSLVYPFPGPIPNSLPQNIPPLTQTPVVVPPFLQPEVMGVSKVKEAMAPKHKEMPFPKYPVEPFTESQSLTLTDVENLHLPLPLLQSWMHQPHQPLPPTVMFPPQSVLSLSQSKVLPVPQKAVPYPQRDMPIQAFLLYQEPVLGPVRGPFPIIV

Data set [2] deals with T2, bovine αS2 casein (no signal peptide).
T2 chain: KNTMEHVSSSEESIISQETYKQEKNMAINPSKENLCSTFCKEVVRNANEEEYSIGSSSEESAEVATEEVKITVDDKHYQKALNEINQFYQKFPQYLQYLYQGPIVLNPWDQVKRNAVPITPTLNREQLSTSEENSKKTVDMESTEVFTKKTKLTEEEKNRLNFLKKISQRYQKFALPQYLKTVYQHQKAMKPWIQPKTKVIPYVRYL

A further data set addresses T3, FLAG_SERPINB14_HiBiT.
T3 chain: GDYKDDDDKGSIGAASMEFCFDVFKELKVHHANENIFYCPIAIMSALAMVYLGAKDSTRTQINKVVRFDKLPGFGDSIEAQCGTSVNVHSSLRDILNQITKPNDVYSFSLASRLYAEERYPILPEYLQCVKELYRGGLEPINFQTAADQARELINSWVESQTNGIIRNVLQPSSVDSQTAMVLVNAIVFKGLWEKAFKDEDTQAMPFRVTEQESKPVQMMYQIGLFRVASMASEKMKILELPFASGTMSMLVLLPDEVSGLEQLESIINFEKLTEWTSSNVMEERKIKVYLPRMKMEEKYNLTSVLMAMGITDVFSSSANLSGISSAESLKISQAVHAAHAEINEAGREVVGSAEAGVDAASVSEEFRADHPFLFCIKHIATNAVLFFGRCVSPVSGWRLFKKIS

The target in data set [3] is FLAG_TRX_SPP1 (G158-N314)_HiBiT.
Chain of FLAG_TRX_SPP1 (G158-N314)_HiBiT (chain, as listed by the source): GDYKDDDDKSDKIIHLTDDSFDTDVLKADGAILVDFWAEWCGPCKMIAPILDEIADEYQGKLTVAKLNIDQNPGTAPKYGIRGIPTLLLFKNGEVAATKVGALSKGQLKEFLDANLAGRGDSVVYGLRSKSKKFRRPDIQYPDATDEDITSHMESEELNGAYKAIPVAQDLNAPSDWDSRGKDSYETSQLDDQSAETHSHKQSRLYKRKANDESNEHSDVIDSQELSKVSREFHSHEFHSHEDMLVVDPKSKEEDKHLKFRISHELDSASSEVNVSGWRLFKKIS
Data set [4] addresses T4, bovine αS1 casein (variant C) (no signal peptide).
T4 chain: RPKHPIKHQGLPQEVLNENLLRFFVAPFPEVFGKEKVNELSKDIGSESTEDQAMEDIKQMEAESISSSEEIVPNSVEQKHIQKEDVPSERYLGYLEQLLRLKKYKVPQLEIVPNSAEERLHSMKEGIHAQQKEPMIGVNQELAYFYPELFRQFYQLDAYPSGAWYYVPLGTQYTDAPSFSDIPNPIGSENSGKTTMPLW

B1: ScMNN2(M1-S36)_Fam20c(D93-R584)_FLAG (protein)
chain: MLLTKRFSKLFKLTFIVLILCGLFVITNKYMDENTSDFSSDPSSNLSSHSLEKLPPAAEPAERALRGRDPGALRPHDPAHRPLLRDPGPRRSESPPGPGGDASLLARLFEHPLYRVAVPPLTEEDVLFNVNSDTRLSPKAAENPDWPHAGAEGAEFLSPGEAAVDSYPNWLKFHIGINRYELYSRHNPAIEALLHDLSSQRITSVAMKSGGTQLKLIMTFQNYGQALFKPMKQTREQETPPDFFYFSDYERHNAEIAAFHLDRILDFRRVPPVAGRMVNMTKEIRDVTRDKKLWRTFFISPANNICFYGECSYYCSTEHALCGKPDQIEGSLAAFLPDLSLAKRKTWRNPWRRSYHKRKKAEWEVDPDYCEEVKQTPPYDSSHRILDVMDMTIFDFLMGNMDRHHYETFEKFGNETFIIHLDNGRGFGKYSHDELSILVPLQQCCRIRKSTYLRLQLLAKEEYKLSLLMAESLRGDQVAPVLYQPHLEALDRRLRVVLKAVRDCVERNGLHSVVDDDLDTEHRAASARDYKDDDDK
B1: the “phosphorylation sites detected by LC-MS/MS after co-expression in Kluyveromyces lactis” value is “S30, S32, S33, S34, S37, T39, S50, at T56” in data set [1]; “S23, S24, S25, S46, S52, S71, S72, S73, S76, T145, S146, S150, S158, and T159” in data set [2]; “S56, S61, S63, T64, S79, S81, S82, S83, S90, S103, and S130” in data set [4]. Also, in the data set with FLAG_SERPINB14_HiBiT, the “phosphorylation sites detected by LC-MS/MS after co-expression in Pichia pastoris” value is “T92, S99, S165, T202, S206, S222, S271, and S345”. The “Phosphorylation” value in data set [3] was “Yes”.

B2: Fam20c(M1-R584)_FLAG (protein)
chain: MKMMLVRRFRVLILMVFLVACALHIALDLLPRLERRGARPSGEPGCSCAQPAAEVAAPGWAQVRGRPGEPPAASSAAGDAGWPNKHTLRILQDFSSDPSSNLSSHSLEKLPPAAEPAERALRGRDPGALRPHDPAHRPLLRDPGPRRSESPPGPGGDASLLARLFEHPLYRVAVPPLTEEDVLFNVNSDTRLSPKAAENPDWPHAGAEGAEFLSPGEAAVDSYPNWLKFHIGINRYELYSRHNPAIEALLHDLSSQRITSVAMKSGGTQLKLIMTFQNYGQALFKPMKQTREQETPPDFFYFSDYERHNAEIAAFHLDRILDFRRVPPVAGRMVNMTKEIRDVTRDKKLWRTFFISPANNICFYGECSYYCSTEHALCGKPDQIEGSLAAFLPDLSLAKRKTWRNPWRRSYHKRKKAEWEVDPDYCEEVKQTPPYDSSHRILDVMDMTIFDFLMGNMDRHHYETFEKFGNETFIIHLDNGRGFGKYSHDELSILVPLQQCCRIRKSTYLRLQLLAKEEYKLSLLMAESLRGDQVAPVLYQPHLEALDRRLRVVLKAVRDCVERNGLHSVVDDDLDTEHRAASARDYKDDDDK
For the protein B2, the “phosphorylation sites detected by LC-MS/MS after co-expression in Kluyveromyces lactis” value in data set [1] is “S30, S32, S33, S34, T39, S50, and T56”; in data set [2] it was “S24, S25, S46, T145, S146, S150, S158, T159, and T163”; in data set [4], “S61, S63, T64, S79, S81, S82, S83, S90, S103, and S130”.
